# Experimental data from article PMC9825174.
# What was measured:
# Test in all cases: EMSA
# [1] = molecular target: UV-DDB (DDB1-DDB2 heterodimer) (UniProt Q16531+Q92466); details: EMSA: 20 mM HEPES pH 7.5, 150 mM NaCl, 2 mM DTT (5 mM in AAG native PAGE), 5% glycerol, 0.5 mg/ml BSA, 8 nM DNA, room temperature 20-30 min, 5% native gel at …
# [2] = molecular target: AAG WT (MPG) (UniProt P29372); details: 60 nM AAG, 8 nM DNA, N20 of strand 1 = tetrahydrofuran abasic analogue (opposite T), EMSA: 20 mM HEPES pH 7.5, 150 mM NaCl, 2 mM DTT (5 mM in AAG native PAGE), 5% glycerol, 0.5 mg/ml BSA, room temperature 20-30 min, 5% native gel at …
# [3] = molecular target: AAG D80 EQ (catalytically dead) E125Q (UniProt P29372); details: 60 nM AAG D80 EQ, 8 nM DNA, text says THF, legend says ϵdA37, N20 of strand 1 = 1,N6-ethenoadenine (opposite T), EMSA: 20 mM HEPES pH 7.5, 150 mM NaCl, 2 mM DTT (5 mM in AAG native PAGE), 5% glycerol, 0.5 mg/ml BSA, room temperature 20-30 min, 5% native gel at …
# Chain of UniProt Q16531 (Q16531 whole entry, chain 1 of 2): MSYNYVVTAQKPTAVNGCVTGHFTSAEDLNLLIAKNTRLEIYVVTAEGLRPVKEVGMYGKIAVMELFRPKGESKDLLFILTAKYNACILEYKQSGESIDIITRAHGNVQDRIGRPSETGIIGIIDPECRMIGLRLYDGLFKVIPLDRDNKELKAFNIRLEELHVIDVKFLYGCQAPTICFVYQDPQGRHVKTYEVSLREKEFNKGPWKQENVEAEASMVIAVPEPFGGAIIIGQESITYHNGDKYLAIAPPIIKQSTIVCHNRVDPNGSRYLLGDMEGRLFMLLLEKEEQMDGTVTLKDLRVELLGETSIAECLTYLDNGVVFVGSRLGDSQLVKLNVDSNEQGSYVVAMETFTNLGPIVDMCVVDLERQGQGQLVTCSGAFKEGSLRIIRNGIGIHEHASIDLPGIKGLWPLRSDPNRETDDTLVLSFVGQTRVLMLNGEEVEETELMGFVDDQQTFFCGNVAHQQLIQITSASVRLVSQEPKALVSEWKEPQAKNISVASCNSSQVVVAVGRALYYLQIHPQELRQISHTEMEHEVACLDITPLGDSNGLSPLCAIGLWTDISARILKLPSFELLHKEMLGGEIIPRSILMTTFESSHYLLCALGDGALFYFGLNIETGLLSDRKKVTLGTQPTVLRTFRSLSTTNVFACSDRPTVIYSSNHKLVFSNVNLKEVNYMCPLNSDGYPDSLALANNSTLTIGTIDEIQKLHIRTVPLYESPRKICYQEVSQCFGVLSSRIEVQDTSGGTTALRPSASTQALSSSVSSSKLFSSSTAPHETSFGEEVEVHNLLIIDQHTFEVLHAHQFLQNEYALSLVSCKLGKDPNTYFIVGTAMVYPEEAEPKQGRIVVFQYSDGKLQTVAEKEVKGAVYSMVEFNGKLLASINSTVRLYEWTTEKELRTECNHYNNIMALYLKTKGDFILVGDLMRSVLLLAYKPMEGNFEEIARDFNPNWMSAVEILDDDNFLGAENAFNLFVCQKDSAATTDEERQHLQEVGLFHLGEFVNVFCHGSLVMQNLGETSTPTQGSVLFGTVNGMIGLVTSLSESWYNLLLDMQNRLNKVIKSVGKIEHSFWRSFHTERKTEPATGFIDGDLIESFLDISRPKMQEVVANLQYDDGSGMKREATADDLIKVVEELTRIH
# Chain of UniProt Q16531 (Q92466 whole entry, chain 2 of 2): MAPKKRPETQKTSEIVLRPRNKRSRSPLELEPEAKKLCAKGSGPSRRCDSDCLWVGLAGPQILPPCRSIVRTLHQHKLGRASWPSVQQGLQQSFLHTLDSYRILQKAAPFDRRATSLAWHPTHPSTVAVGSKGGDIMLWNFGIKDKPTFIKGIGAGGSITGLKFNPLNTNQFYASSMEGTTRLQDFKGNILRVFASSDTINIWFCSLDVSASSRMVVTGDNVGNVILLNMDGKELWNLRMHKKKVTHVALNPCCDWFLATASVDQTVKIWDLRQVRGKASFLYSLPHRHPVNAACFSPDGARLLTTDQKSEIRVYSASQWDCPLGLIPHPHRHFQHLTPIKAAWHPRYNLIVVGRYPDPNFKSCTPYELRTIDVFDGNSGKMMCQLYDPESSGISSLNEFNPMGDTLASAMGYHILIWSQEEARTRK
substance,measurement,setting,value
CCGAGTCATTCCTGCAGCGNGTCCATGGGAGTCAAAT / ATTTGACTCCCATGGACTCGCTGCAGGAATGACTCGG [Hx37 (Hx:T)],Kd,"[1]; N20 of strand 1 = hypoxanthine (deoxyinosine, opposite T)",8.6 nM
CCGAGTCATTCCTGCAGCGNGTCCATGGGAGTCAAAT / ATTTGACTCCCATGGACTCGCTGCAGGAATGACTCGG [THF37],Kd,[1]; N20 of strand 1 = tetrahydrofuran abasic analogue (opposite T),1.8 nM
same,binding signal,[2],> 85 % DNA bound
CCGAGTCATTCCTGCAGCGNGTCCATGGGAGTCAAAT / ATTTGACTCCCATGGACTCGCTGCAGGAATGACTCGG [ϵdA37 (ϵA:T)],binding signal,[3],> 85 % DNA bound
same,Kd,"[1]; N20 of strand 1 = 1,N6-ethenoadenine (opposite T)",6 nM
undamaged 37 bp duplex (UD),Kd,"[1]; no Mg2+, varies with preparation (32-42 nM)",31.8 nM
